Data from US20100144601A1 (Janssen / Centocor, published 2010).

B1: Clone No. 6 (designed binder)
chain: LPAPKNLVVSEVTEDSLRLSWTAPDAAFDSFLIQYQESEKVGEAINLTVPGSERSYDLTGLKPGTEYTVSIYGVGGLTVIHPLSAEFTT
notes: F:G GGLTVIH
B2: Clone No. 74 (designed binder)
chain: LPAPKNLVVSEVTEDSLRLSWTAPDAAFDSFLIQYQESEKVGEAINLTVPGSERSYDLTGLKPGTEYTVSIYGVGGLSYLHPLSAEFTT
notes: F:G GGLSYLH
B3: Clone No. 83 (designed binder)
chain: LPAPKNLVVSEVTEDSLRLSWTAPDAAFDSFLIQYQESEKVGEAINLTVPGSERSYDLTGLKPGTEYTVSIYGVDVTEVYMPLSAEFTT
notes: F:G DVTEVYM
B4: Clone No. 11 (designed binder)
chain: LPAPKNLVVSEVTEDSLRLSWTAPDAAFDSFLIQYQESEKVGEAINLTVPGSERSYDLTGLKPGTEYTVSIYGVGGLSSIHPLSAEFTT
notes: F:G GGLSSIH
B5: Clone No. 69 (designed binder)
chain: LPAPKNLVVSEVTEDSLRLSWTAPDAAFDSFLIQYQESEKVGEAINLTVPGSERSYDLTGLKPGTEYTVSIYGVVLSVLQRPLSAEFTT
notes: F:G VLSVLQR
B6: Clone No. 10 (designed binder)
chain: LPAPKNLVVSEVTEDSLRLSWTAPDAAFDSFLIQYQESEKVGEAINLTVPGSERSYDLTGLKPGTEYTVSIYGVGGLTDIHPLSAEFTT
notes: F:G GGLTDIH
B7: Clone No. 78 (designed binder)
chain: LPAPKNLVVSEVTEDSLRLSWTAPDAAFDSFLIQYQESEKVGEAINLTVPGSERSYDLTGLKPGTEYTVSIYGVRLTALNAPLSAEFTT
notes: F:G RLTALNA
B8: Clone No. 84 (designed binder)
chain: LPAPKNLVVSEVTEDSLRLSWTAPDAAFDSFLIQYQESEKVGEAINLTVPGSERSYDLTGLKPGTEYTVSIYGVSVRMSSVPLSAEFTT
notes: F:G SVRMSSV
B9: Clone No. 4 (designed binder)
chain: LPAPKNLVVSEVTEDSLRLSWTAPDAAFDSFLIQYQESEKVGEAINLTVPGSERSYDLTGLKPGTEYTVSIYGVGGLGVIHPLSAEFTT
notes: F:G GGLGVIH
B10: Clone No. 36 (designed binder)
chain: LPAPKNLVVSEVTEDSLRLSWTAPDAAFDSFLIQYQESEKVGEAINLTVPGSERSYDLTGLKPGTEYTVSIYGVGGLSVVHPLSAEFTT
notes: F:G GGLSVVH
B11: Clone No. 72 (designed binder)
chain: LPAPKNLVVSEVTEDSLRLSWTAPDAAFDSFLIQYQESEKVGEAINLTVPGSERSYDLTGLKPGTEYTVSIYGVMLKSFASPLSAEFTT
notes: F:G MLKSFAS
B12: Clone No. 81 (designed binder)
chain: LPAPKNLVVSEVTEDSLRLSWTAPDAAFDSFLIQYQESEKVGEAINLTVPGSERSYDLTGLKPGTEYTVSIYGVVLSLWMIPLSAEFTT
notes: F:G VLSLWMI
B13: Clone No. 75 (designed binder)
chain: LPAPKNLVVSEVTEDSLRLSWTAPDAAFDSFLIQYQESEKVGEAINLTVPGSERSYDLTGLKPGTEYTVSIYGVMTLTGIDPLSAEFTT
notes: F:G MTLTGID
B14: Clone No. 77 (designed binder)
chain: LPAPKNLVVSEVTEDSLRLSWTAPDAAFDSFLIQYQESEKVGEAINLTVPGSERSYDLTGLKPGTEYTVSIYGVLDLYLRTPLSAEFTT
notes: F:G LDLYLRT
B15: Clone No. 12 (designed binder)
chain: LPAPKNLVVSEVTEDSLRLSWTAPDAAFDSFLIQYQESEKVGEAINLTVPGSERSYDLTGLKPGTEYTVSIYGVGGLRVIHPLSAEFTT
notes: F:G GGLRVIH
B16: Clone No. 14 (designed binder)
chain: LPAPKNLVVSEVTEDSLRLSWTAPDAAFDSFLIQYQESEKVGEAINLTVPGSERSYDLTGLKPGTEYTVSIYGVGGLSFLHPLSAEFTT
notes: F:G GGLSFLH
B17: Clone No. 7 (designed binder)
chain: LPAPKNLVVSEVTEDSLRLSWTAPDAAFDSFLIQYQESEKVGEAINLTVPGSERSYDLTGLKPGTEYTVSIYGVGGLTYIHPLSAEFTT
notes: F:G GGLTYIH
B18: Clone No. 3 (designed binder)
chain: LPAPKNLVVSEVTEDSLRLSWTAPDAAFDSFLIQYQESEKVGEAINLTVPGSERSYDLTGLKPGTEYTVSIYGVEGLGVIHPLSAEFTT
notes: F:G EGLGVIH
B19: Clone No. 5 (designed binder)
chain: LPAPKNLVVSEVTEDSLRLSWTAPDAAFDSFLIQYQESEKVGEAINLTVPGSERSYDLTGLKPGTEYTVSIYGVGGLSVIHPLSAEFTT
notes: F:G GGLSVIH
B20: Clone No. 15 (designed binder)
chain: LPAPKNLVVSEVTEDSLRLSWTAPDAAFDSFLIQYQESEKVGEAINLTVPGSERSYDLTGLKPGTEYTVSIYGVITHMRDMPLSAEFTT
notes: F:G ITHMRDM
B21: Clone No. 34 (designed binder)
chain: LPAPKNLVVSEVTEDSLRLSWTAPDAAFDSFLIQYQESEKVGEAINLTVPGSERSYDLTGLKPGTEYTVSIYGVGGLTVLHPLSAEFTT
notes: F:G GGLTVLH
B22: Clone No. 70 (designed binder)
chain: LPAPKNLVVSEVTEDSLRLSWTAPDAAFDSFLIQYQESEKVGEAINLTVPGSERSYDLTGLKPGTEYTVSIYGVEWRVQVAPLSAEFTT
notes: F:G EWRVQVA
B23: Clone No. 68 (designed binder)
chain: LPAPKNLVVSEVTEDSLRLSWTAPDAAFDSFLIQYQESEKVGEAINLTVPGSERSYDLTGLKPGTEYTVSIYGVWHGMIRPPLSAEFTT
notes: F:G WHGMIRP
B24: Clone No. 1 (designed binder)
chain: LPAPKNLVVSEVTEDSLRLSWTAPDAAFDSFLIQYQESEKVGEAINLTVPGSERSYDLTGLKPGTEYTVSIYGVGGLTYFHPLSAEFTT
notes: F:G GGLTYFH
B25: Clone No. 2 (designed binder)
chain: LPAPKNLVVSEVTEDSLRLSWTAPDAAFDSFLIQYQESEKVGEAINLTVPGSERSYDLTGLKPGTEYTVSIYGVGGLSDIHPLSAEFTT
notes: F:G GGLSDIH
B26: Clone No. 86 (designed binder)
chain: LPAPKNLVVSEVTEDSLRLSWTAPDAAFDSFLIQYQESEKVGEAINLTVPGSERSYDLTGLKPGTEYTVSIYGVWAHLLRDPLSAEFTT
notes: F:G WAHLLRD
B27: Clone No. 85 (designed binder)
chain: LPAPKNLVVSEVTEDSLRLSWTAPDAAFDSFLIQYQESEKVGEAINLTVPGSERSYDLTGLKPGTEYTVSIYGVLWWTLRKPLSAEFTT
notes: F:G LWWTLRK
B28: Clone No. 82 (designed binder)
chain: LPAPKNLVVSEVTEDSLRLSWTAPDAAFDSFLIQYQESEKVGEAINLTVPGSERSYDLTGLKPGTEYTVSIYGVWMVNKVLPLSAEFTT
notes: F:G WMVNKVL
B29: Clone No. 9 (designed binder)
chain: LPAPKNLVVSEVTEDSLRLSWTAPDAAFDSFLIQYQESEKVGEAINLTVPGSERSYDLTGLKPGTEYTVSIYGVGGLSYFHPLSAEFTT
notes: F:G GGLSYFH
B30: Clone No. 73 (designed binder)
chain: LPAPKNLVVSEVTEDSLRLSWTAPDAAFDSFLIQYQESEKVGEAINLTVPGSERSYDLTGLKPGTEYTVSIYGVPWRYGLHPLSAEFTT
notes: F:G PWRYGLH
B31: Clone No. 76 (designed binder)
chain: LPAPKNLVVSEVTEDSLRLSWTAPDAAFDSFLIQYQESEKVGEAINLTVPGSERSYDLTGLKPGTEYTVSIYGVGGWPVRVPLSAEFTT
notes: F:G GGWPVRV
B32: Clone No. 35 (designed binder)
chain: LPAPKNLVVSEVTEDSLRLSWTAPDAAFDSFLIQYQESEKVGEAINLTVPGSERSYDLTGLKPGTEYTVSIYGVGGLAYLHPLSAEFTT
notes: F:G GGLAYLH
B33: Clone No. 8 (designed binder)
chain: LPAPKNLVVSEVTEDSLRLSWTAPDAAFDSFLIQYQESEKVGEAINLTVPGSERSYDLTGLKPGTEYTVSIYGVGGLTYLHPLSAEFTT
notes: F:G GGLTYLH
B34: Clone No. 71 (designed binder)
chain: LPAPKNLVVSEVTEDSLRLSWTAPDAAFDSFLIQYQESEKVGEAINLTVPGSERSYDLTGLKPGTEYTVSIYGVGGLRYLHPLSAEFTT
notes: F:G GGLRYLH
B35: Clone No. 80 (designed binder)
chain: LPAPKNLVVSEVTEDSLRLSWTAPDAAFDSFLIQYQESEKVGEAINLTVPGSERSYDLTGLKPGTEYTVSIYGVRVSEEYGPLSAEFTT
notes: F:G RVSEEYG
B36: Clone No. 13 (designed binder)
chain: LPAPKNLVVSEVTEDSLRLSWTAPDAAFDSFLIQYQESEKVGEAINLTVPGSERSYDLTGLKPGTEYTVSIYGVGALSVIHPLSAEFTT
notes: F:G GALSVIH
B37: Clone No. 79 (designed binder)
chain: LPAPKNLVVSEVTEDSLRLSWTAPDAAFDSFLIQYQESEKVGEAINLTVPGSERSYDLTGLKPGTEYTVSIYGVGIPRWVRPLSAEFTT
notes: F:G GIPRWVR

Target: T1, recombinant TNFα, biotinylated (human, UniProt P01375 77-233, biotinylated using sulfo-NHS-LC-Biotin (sites not given))
T1 construct: human is stated in the abstract and claims; also called biotinylated TNFα; human TNFα
Test: ELISA of lysates on biotinylated TNFα on streptavidin plate
Method: Maxisorp plates (Nunc) were coated with 0.5 μg of streptavidin, washed with TBST, and bound to 100 ng of biotinylated TNFα or 200 ng of biotinylated human serum albumin before being blocked with Starting Block (Thermo Scientific). Clarified lysates diluted 1:1 in Starting Block were added to the plates and allowed to bind for 1 hour before being washed with TBST. Detection of bound Tencon was accomplished using an anti-HIS-HRP antibody (Qiagen).

T1 sequence (P01375 77-233 limits assumed): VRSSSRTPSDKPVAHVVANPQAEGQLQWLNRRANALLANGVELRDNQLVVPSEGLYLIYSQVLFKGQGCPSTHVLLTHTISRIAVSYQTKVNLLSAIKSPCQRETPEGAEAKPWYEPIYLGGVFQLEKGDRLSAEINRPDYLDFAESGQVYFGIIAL

Binding result, binds:
B1
B2
B3
B4
B5
B6
B7
B8
B9
B10
B11
B12
B13
B14
B15
B16
B17
B18
B19
B20
B21
B22
B23
B24
B25
B26
B27
B28
B29
B30
B31
B32
B33
B34
B35
B36
B37
